Measured values: patent publication US11634477 (dated 2023)
Changes are numbered by the printed parent chain.

Tests used:
SARS-CoV-2 RBD = SARS-CoV-2 RBD (SARS-CoV-2, UniProt P0DTC2); experiment: ELISA
SARS-CoV RBD = SARS-CoV RBD (SARS-CoV, UniProt P59594); experiment: ELISA

B1: C211 (antibody, V domains shown)
VH: EVQLVESGGGLVQPGGSLRLSCAASEFTVSSNYMSWVRQAPGKGLEWVSVIYSGGSTFYADSVKGRFTISRDNSKNTLYLQMNSLRPEDTAVYYCARDYGDFYFDFWGQGTLVTVSS
VL: EIVMTQSPATLSVSPGERATLSCRASQSVSSNLAWYQQKPGQGPRLLIYGASTRATGIPARFSGSGSGTEFTLTISSLQSEDFAVYYCQQYNNWPRTFGQGTKVEIK
- EC50 (SARS-CoV-2 RBD): 2.82 ng/mL
- EC50 (SARS-CoV RBD): > 1 µg/mL

B2: C030 (antibody, V domains shown)
VH: EVQLVESGGGVVQPGRSLRLSCAASGFTFSSYGMHWVRQAPGKGLEWVAVISYDGSNKYYADSVKGRFTISRDNSKNTLYLQMNSLRAEDTAVYYCAKASGIYCSGGNCYSYYFDYWGQGTLVTVSS
VL: not shown
- EC50 (SARS-CoV-2 RBD): 2.89 ng/mL
- EC50 (SARS-CoV RBD): > 1 µg/mL

B3: C130 (antibody, V domains shown)
VH: QVQLVQSGAEVKKPGASVKVSCKASGYTFTNYYMHWVRQAPGQGLEWMGIINPSGGSTGYAQKFQGRVTMTRDTSTSTVYMELSSLRSEDTAVYYCARSRPTPDWYFDLWGRGTLVTVSS
VL: SYELTQPPSVSVAPGKTARITCGGNNIGSKSVHWYQQKPGQAPVLVIYYDSDRPSGIPERFSGSNSGNTATLTISRVEAGDEADYYCQVWDSSSDHPGVVFGGGTKLTVL
- EC50 (SARS-CoV-2 RBD): 2.05 ng/mL
- EC50 (SARS-CoV RBD): > 1 µg/mL

B4: C022 (antibody, V domains shown)
VH: QVQLQESGPGLVKPSETLSVTCTVSGGSISSSRYYWGWIRQPPGKGLEWIGSIYYSGSTYYNPSLKSRVTISVDTSKNQFSLKLSSVTAADTAVYYCARHAAAYYDRSGYYFIEYFQHWGQGTLVTVSS
VL: DIQMTQSPSTLSASVGDSVTITCRASQSISSWLAWYQQKPGKAPKLLIYKASSLESGVPSRFSGSGSGTEFTLTISSLQPDDFATYYCQQYNNYRYTFGQGTKLEIK
- EC50 (SARS-CoV-2 RBD): 2.4 ng/mL
- EC50 (SARS-CoV RBD): 0.00599 µg/mL

B5: C201 (antibody, V domains shown)
VH: EVQLVESGGGLVQPGRSLRLSCAASGFTFDDYAMHWVRQAPGKGLEWVSGISWNSGSIGYADSVKGRFTISRDNAKNSLYLQMNSLRAEDTALYYCVKGVEYSSSSNFDYWGQGTLVTVSS
VL: IRMTQSPSSVSASVGDRVTITCRASQGISSWLAWYQQKPGKAPKLLIYVESSLQSGVPSRFSGSGSGTDFTLTISSLQPEDFATYYCQQANSFPLTFGGGTKVEIK
- EC50 (SARS-CoV-2 RBD): 2.98 ng/mL
- EC50 (SARS-CoV RBD): > 1 µg/mL

B6: C117 (antibody, V domains shown)
VH: QVQLVESGGGVVQPGRSLRLSCAASGFTFSTYAMHWVRQAPGEGLEWVAVISYDGSNTYYADSVKGRFTISRDNSKNTLYLQMNSLRAEDTAVYYCARDPIWFGELLSPPFVHFDYWGQGTLVTVSS
VL: QSVLTQPPSVSAAPGQKVTISCSGSSSNIGNNLVSWYQQLPGTAPKLLIYENNKRPSGIPDRFSGSKSGTSATLGITGLQTGDEADYYCGAWDSSLSAGGVYVFGTGTKVTVL
- EC50 (SARS-CoV-2 RBD): 5.38 ng/mL
- EC50 (SARS-CoV RBD): > 1 µg/mL

B7: C103 (antibody, V domains shown)
VH: QVQLQQWGAGLLKPSETLSLTCAVSGGSLSGFYWTWIRQPPGKGLEWIGETNHFGSTGYKPSLKSRVTISVDMSRNQFSLKVTSVTAADTAVYYCARKPLLYSDFSPGAFDIWGQGTMVTVSS
VL: EIVLTQSPGTLSLSPGERATLSCRASQTVTANYLAWYQQKPGQAPRLLIYGASKRATGIPDRFSGSGSGTDFTLSISRLEPEDFAVYYCQQYTTTPRTFGGGTKVEIK
- EC50 (SARS-CoV-2 RBD): 3.77 ng/mL
- EC50 (SARS-CoV RBD): > 1 µg/mL

B8: C104 (antibody, V domains shown)
VH: QVQLQQWGAGLLKPSETLSLSCAVYGGSLSGYYWSWIRQPPGKGLEWIGEINHFGSTGYNPSLKSRVTISVDTSKSQFSVKLSSVTAADTAVYYCARKPLLYSNLSPGAFDIWGQGTMVTVSS
VL: B7 VL with L11V, R24W, T28S, T30S, N32S, K54S, S75T, T93G
- EC50 (SARS-CoV-2 RBD): 8.31 ng/mL
- EC50 (SARS-CoV RBD): > 1 µg/mL

B9: C005 (antibody, V domains shown)
VH: QVQLVQSGPEVKKPGTSVKVSCKASGFTFTSSAVQWVRQARGQRLEWIGWIVVGSGNTNYAQKFQERVTITRDMSTSTAYMELSSLRSEDTAVYYCAAPHCSGGSCLDAFDIWGQGTMVTVSS
VL: not shown
- EC50 (SARS-CoV-2 RBD): 4.41 ng/mL
- EC50 (SARS-CoV RBD): > 1 µg/mL

B10: C154 (antibody, V domains shown)
VH: QVQLVESGGGVVQPGRSLRLSCAASGFTFSRYGMHWVRQAPGKGLEWVAVMSYDGSSKYYADSVKGRFTISRDNSKNTLCLQMNSLRAEDTAVYYCAKQAGPYCSGGSCYSAPFDYWGQGTLVTVSS
VL: DIQMTQSPSSLSASVGDRVTITCQASQGISNYLNWYQQKPGKAPKLLIYDASNLETGVPSRFSGSGSGTDFTFTISSLQPEDIATYYCQQYDNLPITFGQGTRLEIK
- EC50 (SARS-CoV-2 RBD): 2.92 ng/mL
- EC50 (SARS-CoV RBD): 0.0106 µg/mL

B11: C009 (antibody, V domains shown)
VH: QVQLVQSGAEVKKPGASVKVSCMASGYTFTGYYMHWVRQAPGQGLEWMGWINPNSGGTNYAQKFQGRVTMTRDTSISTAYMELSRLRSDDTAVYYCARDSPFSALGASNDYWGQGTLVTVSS
VL: QSALTQPPSASGSPGQSVTISCTGTSSDVGGYNYVSWYQQHPGKAPKLMIYEVSKRPSGVPDRFSGSKSGNTASLTVSGLQAEDEAEYYCSSDAGSNNVVFGGGTKLTVL
- EC50 (SARS-CoV-2 RBD): 1.8 ng/mL
- EC50 (SARS-CoV RBD): > 1 µg/mL

B12: C141 (antibody, V domains shown)
VH: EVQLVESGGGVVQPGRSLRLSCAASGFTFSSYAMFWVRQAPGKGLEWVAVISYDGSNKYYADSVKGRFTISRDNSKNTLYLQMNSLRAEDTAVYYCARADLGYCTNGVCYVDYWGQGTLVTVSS
VL: NFMLTQPHSVSESPGKTVTISCTGSSGSIASNYVQWYQQRPGSAPTTVIYEDNQRPSGVPDRFSGSIDSSSNSASLTISGLKTEDEADYYCQSYDSSNWVFGGGTKLTVL
- EC50 (SARS-CoV-2 RBD): 1.71 ng/mL
- EC50 (SARS-CoV RBD): > 1 µg/mL

B13: C138 (antibody, V domains shown)
VH: EVQLVESGGGLVQPGGSLRLSCAASGFTFSTYWMSWVRQPPGKGLEWVANIKQDGSEKYYVDSVKGRFTISRDNAKNSLYLQMNSLRADDTAVYYCAGGTWLRSSFDYWGQGTLVTVSS
VL: B12 VL
- EC50 (SARS-CoV-2 RBD): 2.94 ng/mL
- EC50 (SARS-CoV RBD): > 1 µg/mL

B14: C107 (antibody, V domains shown)
VH: QVQLVQSGAEVKKPGASVRVSCKASGYTFTSYGFSWVRQAPGQGLEWMGWISAYNGNTNFAQKLQGRVTMTTDTSTSTAYMELRSLRSDDTAVYYCARGEAVAGTTGFFDYWGQGTLVTVSS
VL: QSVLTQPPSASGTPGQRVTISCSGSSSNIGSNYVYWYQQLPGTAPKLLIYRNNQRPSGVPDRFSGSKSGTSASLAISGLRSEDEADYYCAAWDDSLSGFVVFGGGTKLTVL
- EC50 (SARS-CoV-2 RBD): 11.6 ng/mL
- EC50 (SARS-CoV RBD): > 1 µg/mL

B15: C216 (antibody, V domains shown)
VH: EVQLVESGGGLVQPGGSLRLSCAASGFTFSSYDMHWVRQATGKGLEWVSAIGTAGDTYYPDSVKGRFTISRENAKNSLYLQMNSLRAGDTAVYYCARDRGSSGWYGWYFDLWGRGTLVTVSS
VL: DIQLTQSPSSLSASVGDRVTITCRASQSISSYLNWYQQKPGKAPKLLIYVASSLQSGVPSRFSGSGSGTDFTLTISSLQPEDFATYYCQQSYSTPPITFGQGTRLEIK
- EC50 (SARS-CoV-2 RBD): 9.53 ng/mL
- EC50 (SARS-CoV RBD): > 1 µg/mL

B16: C121 (antibody, V domains shown)
VH: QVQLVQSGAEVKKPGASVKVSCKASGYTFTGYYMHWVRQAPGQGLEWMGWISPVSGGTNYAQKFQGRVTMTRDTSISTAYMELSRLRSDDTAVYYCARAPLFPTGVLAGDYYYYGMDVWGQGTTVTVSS
VL: QSALTQPASVSGSPGQSITISCTGTSSDVGSYNLVSWYQQHPGKAPKLMIYEGSKRPSGVSNRFSGSKSGNTASLTISGLQAEDEADYYCCSYAGSSTLVFGGGTKLTVL
- EC50 (SARS-CoV-2 RBD): 2.85 ng/mL
- EC50 (SARS-CoV RBD): > 1 µg/mL

B17: C150 (antibody, V domains shown)
VH: EVQLVESGGGLVQPGGSLRLSCVASGFTFSSYWMHWVRQVPGKGPVWVSHINSEGSSTNYADSVRGRFTISRDNAKDTLYLQMNNLRAEDTAVYYCARPTAVAAAGNYFYYYGMDVWGQGTTVTVSS
VL: B16 VL with S31Y, L34F, G53V, K55N, T76I, C91S, A94R, G95S
- EC50 (SARS-CoV-2 RBD): 8.11 ng/mL
- EC50 (SARS-CoV RBD): > 1 µg/mL

B18: C164 (antibody, V domains shown)
VH: EVQLVESGGGLVQPGGSLRLSCAASGFSVSTKYMTWVRQAPGKGLEWVSVLYSGGSDYYADSVKGRFTISRDNSKNALYLQMNSLRVEDTGVYYCARDSSEVRDHPGHPGRSVGAFDIWGQGTMVTVSS
VL: QSALTQPASVSGSPGQSITISCTGTSNDVGSYTLVSWYQQYPGKAPKLLIFEVTKRSSGISNRFSGSKSGNTASLTISGLQGEDEADYYCCSYAGASTFVFGGGTKLTVL
- EC50 (SARS-CoV-2 RBD): 2.06 ng/mL
- EC50 (SARS-CoV RBD): > 1 µg/mL

B19: C122 (antibody, V domains shown)
VH: EVQLVESGGGLIQPGGSLRLSCAASGLTVSSNYMSWVRQAPGKGLEWVSVLYSGGSSFYADSVKGRFTISRDNSKNTLYLQMNSLRAEDTAVYYCARESGDTTMAFDYWGQGTLVTVSS
VL: DIQLTQSPSFLSASVGDRVTITCRASQGISSYLAWYQQKPGKAPKLLIYAASTLQSGVPSRFSGSGSGTEFTLTISSLQPEDFATYYCQQLNSDSYTFGQGTKLEIK
- EC50 (SARS-CoV-2 RBD): 2.67 ng/mL
- EC50 (SARS-CoV RBD): > 1 µg/mL

B20: C123 (antibody, V domains shown)
VH: EVQLVESGGGLIQPGGSLRLSCAASGVTVSRNYMSWVRQAPGKGLEWVSVIYSGGSTYYADSVKGRFTISRDNSKNTLYLQMNSLRAEDTAVYYCARDLSAAFDIWGQGTMVTVSS
VL: B19 VL with D94Y, S95P, Y96P, T97A, K103R
- EC50 (SARS-CoV-2 RBD): 1.92 ng/mL
- EC50 (SARS-CoV RBD): > 1 µg/mL

B21: C215 (antibody, V domains shown)
VH: EVQLLESGGGLVQPGGSLRLSCAASGFTFSSYAMSWVRQAPGKGLEWVSAITDSGDGTFYADSVKGRFTISRDNSKNTLYLQMNSLRAEDTAVYYCASEEDYSNYVGWFDPWGQGTLVTVSS
VL: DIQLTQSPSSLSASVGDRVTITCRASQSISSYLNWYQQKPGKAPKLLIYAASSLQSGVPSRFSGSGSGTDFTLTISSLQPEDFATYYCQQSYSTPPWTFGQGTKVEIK
- EC50 (SARS-CoV-2 RBD): 5.33 ng/mL
- EC50 (SARS-CoV RBD): 0.0179 µg/mL

B22: C116 (antibody, V domains shown)
VH: QVQLVESGGGVVQPGRSLRLSCAASGFTYSTYAMHWVRQAPGKGLEWVAFISYDGSNKYYADSVKGRFTISRDNSKNTLYLQMNSLRAEDTAVYYCARDFYHNWFDPWGQGTLVTVSS
VL: NFMLTQPHSVSESPGKTVTISCTGSSGSIASNYVQWYQQRPGSAPTTVIYEDNQRPSGVPDRFSGSIDRSSNSASLTISGLKTEDEADYYCQSYDSGNHWVVFGGGTRLTVL
- EC50 (SARS-CoV-2 RBD): 37.6 ng/mL
- EC50 (SARS-CoV RBD): > 1 µg/mL

B23: C008 (antibody, V domains shown)
VH: EVQLVESGGGVVQPGRSLRLSCAASGFTFSSYGMHWVRQAPGKGLEWVTVISYDGRNKYYADSVKGRFTISRDNSKNTLYLQMNSLRAEDTAVYYCAREFGDPEWYFDYWGQGTLVTVSS
VL: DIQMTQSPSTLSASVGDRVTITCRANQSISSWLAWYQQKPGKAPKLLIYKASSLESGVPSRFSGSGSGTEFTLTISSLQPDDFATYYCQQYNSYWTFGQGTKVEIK
- EC50 (SARS-CoV-2 RBD): 4.63 ng/mL
- EC50 (SARS-CoV RBD): > 1 µg/mL
